Measurements reported in article doi:10.1101/2021.07.09.451512.
Read-outs that look alike come from different tables or passages of the source.

Assays:
Experiment in all cases: fluorescence polarisation
[1] = target: fluorescein labelled AcrIIC4 (wild type, engineered C-terminal cysteine) (Haemophilus parainfluenzae (prophage))
[2] = target: fluorescein labelled AcrIIC4 R46A (Haemophilus parainfluenzae (prophage))
[3] = target: fluorescein labelled AcrIIC4 (wild type, engineered C-terminal cysteine) (Haemophilus parainfluenzae (prophage)); remark: listed apart in the source
[4] = target: fluorescein labelled AcrIIC4 K56A (Haemophilus parainfluenzae (prophage))
[5] = target: fluorescein labelled AcrIIC4 F49A (Haemophilus parainfluenzae (prophage))
[6] = target: fluorescein labelled AcrIIC4 (wild type, engineered C-terminal cysteine) (Haemophilus parainfluenzae (prophage)); remark: listed apart in the source

B1: Nme1Cas9 (N-terminal 6His-tag) (natural protein)
chain: MAAFKPNSINYILGLDIGIASVGWAMVEIDEEENPIRLIDLGVRVFERAEVPKTGDSLAMARRLARSVRRLTRRRAHRLLRTRRLLKREGVLQAANFDENGLIKSLPNTPWQLRAAALDRKLTPLEWSAVLLHLIKHRGYLSQRKNEGETADKELGALLKGVAGNAHALQTGDFRTPAELALNKFEKESGHIRNQRSDYSHTFSRKDLQAELILLFEKQKEFGNPHVSGGLKEGIETLLMTQRPALSGDAVQKMLGHCTFEPAEPKAAKNTYTAERFIWLTKLNNLRILEQGSERPLTDTERATLMDEPYRKSKLTYAQARKLLGLEDTAFFKGLRYGKDNAEASTLMEMKAYHAISRALEKEGLKDKKSPLNLSPELQDEIGTAFSLFKTDEDITGRLKDRIQPEILEALLKHISFDKFVQISLKALRRIVPLMEQGKRYDEACAEIYGDHYGKKNTEEKIYLPPIPADEIRNPVVLRALSQARKVINGVVRRYGSPARIHIETAREVGKSFKDRKEIEKRQEENRKDREKAAAKFREYFPNFVGEPKSKDILKLRLYEQQHGKCLYSGKEINLGRLNEKGYVEIDHALPFSRTWDDSFNNKVLVLGSENQNKGNQTPYEYFNGKDNSREWQEFKARVETSRFPRSKKQRILLQKFDEDGFKERNLNDTRYVNRFLCQFVADRMRLTGKGKKRVFASNGQITNLLRGFWGLRKVRAENDRHHALDAVVVACSTVAMQQKITRFVRYKEMNAFDGKTIDKETGEVLHQKTHFPQPWEFFAQEVMIRVFGKPDGKPEFEEADTLEKLRTLLAEKLSSRPEAVHEYVTPLFVSRAPNRKMSGQGHMETVKSAKRLDEGVSVLRVPLTQLKLKDLEKMVNREREPKLYEALKARLEAHKDDPAKAFAEPFYKYDKAGNRTQQVKAVRVEQVQKTGVWVRNHNGIADNATMVRVDVFEKGDKYYLVPIYSWQVAKGILPDRAVVQGKDEEDWQLIDDSFNFKFSLHPNDLVEVITKKARMFGYFASCHRGTGNINIRIHDLDHKIGKNGILEGIGVKTALSFQKYQIDELGKEIRPCRLKKRPPVR
[1]
  Kd: 7.1 nM
[2]
  Kd: > 2500 nM
[3]
  Kd: 6.6 nM
[4]
  Kd: 1.4 nM
[5]
  Kd: 15.3 nM
[6]
  Kd: 10.2 nM
